From the RNAGym collection of RNA variant scans (doi:10.7554/elife.80360) come the findings set out here.

B1: Hammerhead Ribozyme (parent)
chain: ACCGGAUGUGCUUUCCGGUCUGAUGAGUCCGUGAGGACGAAACAG

The variants in this series derive from B1. The series is described as follows: self-cleavage, relative activity (ratio to wild type); higher = more cleavage; co-transcriptional.
Consider G22U G25U, for which the self-cleavage stood at 0.303. To G22U G25A belongs 0.269. In the case of G22U G25C, the self-cleavage worked out at 0.264. To G22U A26C belongs 0.345; to G22U A26G, 0.346. The same measure for G22U A26U: 0.315; for G22U A23C: 0.284; for G22U A23G: 0.297. On to G22U A23U, for which the self-cleavage amounted to 0.307. Turning to G22U C29U, the self-cleavage amounted to 0.251. The same measure for G22U C29A: 0.299; for G22U C29G: 0.317. The same measure for A23U G33C: 0.262; for A23U G33U: 0.551.

As to A23U G33A, the self-cleavage stood at 0.524. For A23U A37U, the self-cleavage turned out to be 0.272. The same measure for A23U A37G: 0.422.

In the case of A23U A37C, the self-cleavage is 0.381. On to A23C A34G, for which the self-cleavage turned out to be 0.342. The same measure for A23C A34U: 0.298; for A23C A34C: 0.374; for G22U A44C: 0.432. In the case of G22U A44U, the self-cleavage came to 0.335. To G22U A44G belongs 0.711. With U24A C30A, the self-cleavage was 0.928.

In the case of U24A C30G, the self-cleavage came to 1.04.

As for U24A C30U, the self-cleavage turned out to be 0.785.

With A23C C29U, the self-cleavage stood at 0.337.

Regarding A23C C29A, the self-cleavage is 0.267.

For the variant A23C C29G, the self-cleavage was found to be 0.369. With A23G C30U, the self-cleavage amounted to 0.485. To A23G C30A belongs 0.305; to A23G C30G, 0.248.

For A23G C38U, the self-cleavage was found to be 0.394. The same measure for A23G C38G: 0.311; for A23G C38A: 0.328; for A23G G33C: 0.376.

Take A23G G33U: the self-cleavage amounted to 0.458. Take A23G G33A: the self-cleavage worked out at 0.465. The same measure for G22U C38A: 0.305.

Turning to G22U C38U, the self-cleavage was found to be 0.335.

Take G22U C38G: the self-cleavage is 0.33. With A23C A37C, the self-cleavage came to 0.384.

Regarding A23C A37G, the self-cleavage turned out to be 0.237.

For A23C A37U, the self-cleavage stood at 0.42. The same measure for G22U G45U: 0.428; for G22U G45C: 0.348. To G22U G45A belongs 0.345. In the case of A23U A40C, the self-cleavage is 0.348. As for A23U A40G, the self-cleavage was determined as 0.237. Consider A23U A40U, for which the self-cleavage came out at 0.371.

As for U24A G35A, the self-cleavage is 0.873.

For the variant U24A G35C, the self-cleavage turned out to be 0.851. Turning to A23C U28G, the self-cleavage was found to be 0.398. To A23C U28C belongs 0.352; to A23C U28A, 0.262. The same measure for A23C U24G: 0.464. With A23C U24C, the self-cleavage is 0.505. Take A23C U24A: the self-cleavage came out at 0.397. Take G22U G36C: the self-cleavage worked out at 0.363. The same measure for G22U G36U: 0.301; for G22U G36A: 0.316; for U24A A26G: 0.332. Regarding U24A A26C, the self-cleavage was found to be 0.602. To U24A A26U belongs 0.756; to A23G G36U, 0.403. Turning to A23G G36A, the self-cleavage turned out to be 0.34. To A23G G36C belongs 0.291; to G22U G31C, 0.303.

Turning to G22U G31A, the self-cleavage is 0.397.

Regarding G22U G31U, the self-cleavage turned out to be 0.318. The same measure for G22C U24C: 0.348; for G22C U24G: 0.281. Take G22C U24A: the self-cleavage came out at 0.365. For the variant U24A A44C, the self-cleavage amounted to 0.46. U24A A44U: the self-cleavage turned out to be 0.712. To U24A A44G belongs 1.68; to U24A C29G, 0.79. The same measure for U24A C29U: 0.883; for U24A C29A: 0.786; for A23U C38A: 0.381.

Regarding A23U C38G, the self-cleavage was determined as 0.357. To A23U C38U belongs 0.341; to A23U U24A, 0.58. The same measure for A23U U24C: 0.45. The same measure for A23U U24G: 0.251; for A23C G39A: 0.298. Consider A23C G39C, for which the self-cleavage was found to be 0.357. To A23C G39U belongs 0.371. Take A23C A42C: the self-cleavage stood at 0.31.

Take A23C A42G: the self-cleavage is 0.392. To A23C A42U belongs 0.331. With A23C G35A, the self-cleavage came to 0.397. To A23C G35U belongs 0.408.

Regarding A23C G35C, the self-cleavage came out at 0.408. On to A23C A44C, for which the self-cleavage turned out to be 0.39. To A23C A44U belongs 0.227.

Consider A23C A44G, for which the self-cleavage was determined as 0.896. Regarding G22U U32A, the self-cleavage is 0.282. To G22U U32C belongs 0.272; to G22U U32G, 0.299. As for A23C G31U, the self-cleavage was 0.647. A23C G31C: the self-cleavage amounted to 0.533. To A23C G31A belongs 0.68; to A23U C43A, 0.377; to A23U C43U, 0.433. Regarding A23U C43G, the self-cleavage came to 0.356. G22U A42C: the self-cleavage worked out at 0.359. To G22U A42G belongs 0.285; to G22U A42U, 0.36; to A23C G27A, 0.341. On to A23C G27U, for which the self-cleavage came out at 0.256. The same measure for A23C G27C: 0.328; for A23U C30A: 0.463; for A23U C30G: 0.345.

For the variant A23U C30U, the self-cleavage was found to be 0.402. As to A23G A40G, the self-cleavage was found to be 0.306. Regarding A23G A40U, the self-cleavage was found to be 0.326.

On to A23G A40C, for which the self-cleavage turned out to be 0.355.

In the case of A23U G31U, the self-cleavage was determined as 0.477. Take A23U G31C: the self-cleavage was 0.393. The same measure for A23U G31A: 0.631; for G22U G35C: 0.311. The same measure for G22U G35U: 0.366; for G22U G35A: 0.335; for A23C A40G: 0.351. Regarding A23C A40U, the self-cleavage came out at 0.243. To A23C A40C belongs 0.31; to U24A G27C, 0.685. Take U24A G27U: the self-cleavage worked out at 0.508. Regarding U24A G27A, the self-cleavage is 0.7. The same measure for G22C U28A: 0.351; for G22C U28C: 0.298; for G22C U28G: 0.293.

In the case of A23G A34C, the self-cleavage was determined as 0.338. In the case of A23G A34U, the self-cleavage is 0.364. To A23G A34G belongs 0.35; to A23C G33A, 0.621; to A23C G33U, 0.659. Regarding A23C G33C, the self-cleavage stood at 0.479. To A23U G36U belongs 0.314; to A23U G36A, 0.375. Take A23U G36C: the self-cleavage worked out at 0.327. To G22C G45C belongs 0.424; to G22C G45U, 0.384. For the variant G22C G45A, the self-cleavage stood at 0.328. As for A23U G45C, the self-cleavage came to 0.42. The same measure for A23U G45U: 0.461; for A23U G45A: 0.336; for A23G U28C: 0.327.

A23G U28A: the self-cleavage stood at 0.329.

Turning to A23G U28G, the self-cleavage stood at 0.386. For the variant U24A A40U, the self-cleavage came out at 0.359. As for U24A A40G, the self-cleavage is 0.337. The same measure for U24A A40C: 0.421; for U24A G33C: 1.21; for U24A G33A: 1. To U24A G33U belongs 0.78; to A23G G35U, 0.316.

For the variant A23G G35A, the self-cleavage was found to be 0.38. On to A23G G35C, for which the self-cleavage came out at 0.279.

As to A23U G27A, the self-cleavage came out at 0.32.

Turning to A23U G27U, the self-cleavage worked out at 0.279. The same measure for A23U G27C: 0.308; for A23G A41U: 0.298. The same measure for A23G A41G: 0.334. To A23G A41C belongs 0.34.
